From US20230357857, “NUCLEIC ACID NANOSTRUCTURES WITH TUNABLE FUNCTIONAL STABILITY” (National University of Singapore, published 2023) come the findings set out here.

The labels stand for the following.
B1: PCGEM1 Aptamer + PCGEM1 specific strand (dsDNA)
DNA 1: CCTCAGAAATCTCGGCAATGTACAGTATTGCCG
DNA 2: AGATTTCTGAGGGGAATT
B2: ACTB Aptamer + ACTB specific strand (dsDNA)
DNA 1: ACGCAACTAAGTGACCAATGTACAGTATTGGTC
DNA 2: ACTTAGTTGCGTTACACC
B3: miR-223-5p Aptamer + miR-223 specific strand (dsDNA)
DNA 1: ACAAGCTGAGTTCGCCAATGTACAGTATTGGCG
DNA 2: AACTCAGCTTGTCAAATA
B4: miR-1827 Aptamer + miR-1827 specific strand (dsDNA)
DNA 1: AGTAGATTGAATCGGACAATGTACAGTATTGTCCG
DNA 2: ATTCAATCTACTGCCTCA
B5: GAPDH Aptamer + GAPDH specific strand (dsDNA)
DNA 1: TTCTCAAGACGGAATCAATGTACAGTATTGATT
DNA 2: CCGTCTTGAGAAACCTGC
B6: GAS5 Aptamer + GAS5 specific strand (dsDNA)
DNA 1: TGTCTTCATGTCTAGCCAATGTACAGTATTGGCTA
DNA 2: GACATGAAGACAGTTCCT
B7: hnRNPA2B1 Aptamer + hnRNPA2B1 specific strand (dsDNA)
DNA 1: TGCCTATCAGTATGACCAATGTACAGTATTGGTCA
DNA 2: TACTGATAGGCAGTCTGG
B8: NEAT1 Aptamer + NEAT1 specific strand (dsDNA)
DNA 1: TTAGCGCCAAACTAGCAATGTACAGTATTGCTA
DNA 2: GTTTGGCGCTAAACTCTT

Bounds are passed on as bounds.

Taq DNA polymerase, sequence (P19821 whole entry, one chain of several): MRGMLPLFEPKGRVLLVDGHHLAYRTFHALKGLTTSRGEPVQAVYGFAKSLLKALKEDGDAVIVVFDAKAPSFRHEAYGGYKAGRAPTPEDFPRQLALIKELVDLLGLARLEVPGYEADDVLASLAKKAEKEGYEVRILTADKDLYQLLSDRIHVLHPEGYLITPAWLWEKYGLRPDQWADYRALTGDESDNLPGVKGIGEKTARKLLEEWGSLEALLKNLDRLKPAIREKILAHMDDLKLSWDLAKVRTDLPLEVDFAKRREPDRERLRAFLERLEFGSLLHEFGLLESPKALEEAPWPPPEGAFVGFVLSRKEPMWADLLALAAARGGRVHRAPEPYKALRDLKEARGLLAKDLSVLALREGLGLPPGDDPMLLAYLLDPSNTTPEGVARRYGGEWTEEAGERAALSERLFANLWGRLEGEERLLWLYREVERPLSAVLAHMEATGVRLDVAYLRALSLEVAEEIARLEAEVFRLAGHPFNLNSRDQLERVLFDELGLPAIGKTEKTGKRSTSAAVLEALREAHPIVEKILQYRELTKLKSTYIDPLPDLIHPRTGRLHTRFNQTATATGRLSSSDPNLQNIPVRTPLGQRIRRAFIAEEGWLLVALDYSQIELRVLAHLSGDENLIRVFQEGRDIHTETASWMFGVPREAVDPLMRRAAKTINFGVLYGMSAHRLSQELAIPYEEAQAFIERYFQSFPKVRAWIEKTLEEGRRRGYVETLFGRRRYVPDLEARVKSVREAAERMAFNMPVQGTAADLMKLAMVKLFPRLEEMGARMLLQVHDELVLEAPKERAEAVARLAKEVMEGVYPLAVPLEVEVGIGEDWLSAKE

This data set has as its target Taq DNA polymerase (UniProt P19821 P19821:1-832). Nature of the data set: inhibition; >80% signal with target; 1.5 mM MgCl2. Particulars: tags: Promega; partial duplex plus stabilizer hairpin.
Take B1: the activity is below 10 % signal without target.

On to B2, for which the activity is below 10 % signal without target.

In the case of B3, the activity was below 10 % signal without target. With B4 the figure was below 10 % signal without target.

On to B5, for which the activity was below 10 % signal without target.

Regarding B6, the activity was below 10 % signal without target. With B7, the activity is below 10 % signal without target. On to B8, for which the activity was below 10 % signal without target.
